Molecular target: T1, FAM-labeled Aβ42 peptide (carboxy-fluorescein conjugated to the N' terminus), prepared as ADDL oligomers (UniProt P05067 672-713, carboxy-fluorescein (FAM) on the N-terminus; the labelled peptide was mixed with wild type Aβ42 in a 1:2 molar ratio)
T1 construct: Aβ42, the 42-residue β-amyloid peptide cut from the amyloid precursor protein (APP); Mixed with unlabelled wild type Aβ42 (1:2 molar ratio), then incubated at 4 °C for 24 hrs to oligomerise (ADDLs); also called FAM-Aβ42; FAM tagged-Aβ; source: bought: Anaspec (FAM-Aβ42); Aβ peptides from BioSource
Test: fluorescence polarisation; in solution; FAM-Aβ42 probe (ADDL oligomers) fixed at 200 nM, recombinant PDK-1 or Akt-1 titrated 0-10 μM (Akt 0 to 12.5 μM) until saturation; 30 min, 25°C; 100 mM NaCl, 20 mM phosphate pH7.4, 2 mM DTT, 0.1% BSA, 2% DMSO; 2 experiments each
Conditions: both partners purified

T1 sequence (P05067 672-713): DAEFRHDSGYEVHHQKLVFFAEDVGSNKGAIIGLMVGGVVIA

B1: Recombinant human PDK-1 (active) (enzyme, UniProt O15530 1-556, looked up)
chain: MARTTSQLYDAVPIQSSVVLCSCPSPSMVRTQTESSTPPGIPGGSRQGPAMDGTAAEPRPGAGSLQHAQPPPQPRKKRPEDFKFGKILGEGSFSTVVLARELATSREYAIKILEKRHIIKENKVPYVTRERDVMSRLDHPFFVKLYFTFQDDEKLYFGLSYAKNGELLKYIRKIGSFDETCTRFYTAEIVSALEYLHGKGIIHRDLKPENILLNEDMHIQITDFGTAKVLSPESKQARANSFVGTAQYVSPELLTEKSACKSSDLWALGCIIYQLVAGLPPFRAGNEYLIFQKIIKLEYDFPEKFFPKARDLVEKLLVLDATKRLGCEEMEGYGPLKAHPFFESVTWENLHQQTPPKLTAYLPAMSEDDEDCYGNYDNLLSQFGCMQVSSSSSSHSLSASDTGLPQRSGSNIEQYIHDLDSNSFELDLQFSEDEKRLLLEKQAGGNPWHQFVENNLILKMGPVDKRKGLFARRRQLLLTEGPHLYYVDPVNKVLKGEIPWSQELRPEAKNFKTFFVHTPNRTYYLMDPSGNAHKWCRKIQEVWRQRYQSHPDAAVQ
notes: phosphoinositide-dependent protein kinase-1 (PDK-1), human, recombinant, active; printed size 59 kDa; Commercial protein; also called phosphoinositide-dependent protein kinase-1; source: bought: Amsbio
For B1, which IC50 is on record?
Its IC50 is about 1000 nM.
